# PMC6420115 (Science (New York, N.y.), 2018)
# Read-outs that look alike come from different tables or passages of the source.
# T1: minimal NANP3 peptide (Plasmodium falciparum (isolate NF54).)
# T1 chain: NANPNANPNANP
# T2: NANP5 peptide (NANP 5-mer peptide of the PfCSP repeat) (Plasmodium falciparum (isolate NF54).)
# T2 construct: source: bought: Alpha Diagnostic International
# T2 chain: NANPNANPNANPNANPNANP
# T3: NANP3 peptide (minimal NANP repeat peptide) (Plasmodium falciparum (isolate NF54).)
# T3 construct: source: bought: PSL GmbH, Heidelberg
# T3 chain: NANPNANPNANP
# What was measured:
# minimal NANP3 peptide [1] = molecular target: T1, minimal NANP3 peptide
# [2] = molecular target: T2, NANP5 peptide (NANP 5-mer peptide of …); experiment: ITC; conditions: both partners purified
# [3] = molecular target: T3, NANP3 peptide (minimal NANP repeat …); experiment: ITC; conditions: both partners purified
# [4] = molecular target: T4, full-length PfCSP with 38 NANP repeats (Plasmodium falciparum (isolate NF54)., UniProt P19597); experiment: SEC-MALS; 1210 Fab–PfCSP complex; molar mass from two measurements; conditions: both partners purified
# T4 construct: also called circumsporozoite protein; NF54
# minimal NANP3 peptide [5] = molecular target: T1, minimal NANP3 peptide; experiment: SPR; independent NANP3 SPR affinity measurements of original and mutated antibodies; who was immobilised is not given in the source; conditions: both partners purified
# [6] = molecular target: T5, full length PfCSP (NF54 strain) (Plasmodium falciparum (isolate NF54)., UniProt P19597); experiment: BLI; conditions: both partners purified
# T5 construct: also called NF54 PfCSP; circumsporozoite protein; source: HEK293F, transient expression, purified (HisTrap Ni/NTA, SEC)
# T5 sequence (P19597 19-374): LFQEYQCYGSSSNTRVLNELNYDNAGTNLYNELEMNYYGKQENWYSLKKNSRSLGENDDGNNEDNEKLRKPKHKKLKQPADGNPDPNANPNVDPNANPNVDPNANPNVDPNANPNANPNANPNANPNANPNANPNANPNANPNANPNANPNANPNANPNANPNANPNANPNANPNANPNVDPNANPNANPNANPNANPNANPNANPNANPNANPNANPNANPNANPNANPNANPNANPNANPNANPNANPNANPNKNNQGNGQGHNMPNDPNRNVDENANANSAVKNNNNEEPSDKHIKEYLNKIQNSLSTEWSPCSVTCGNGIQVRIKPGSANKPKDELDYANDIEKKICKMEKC
# T4 sequence (P19597 19-374): as above
binder,measurement,setting,value
"1210_H.N31_Srev (antibody, V domains shown) VH: QVQLVESGGGVVQPGRSLRLSCAASGFTFSSYGMHWVRQAPGKGLEWVAVIWYDGSKKYYADSVKGRFTISRDNSKNTLYLQMNSLRAEDTAVYYCARVRDSSDYYGDAFDIWGQGTMVTVSS VL: DIQMTQSPSTLSASVGDRVTITCRASQSISSWLAWYQQKPGKAPKLLIYKASNLESGVPLRFSGSGSGTEFTLTISSLQPDDFATYYCQQYNNYWTFGQGTKVEIK",binding result,minimal NANP3 peptide [1],binds
"1210 germline antibody Fab (recombinant Fab for ITC) (Fab, V domains shown, source: HEK293F, transiently expressed, purified (KappaSelect, SEC)) VH: QVQLVESGGGVVQPGRSLRLSCAASGFTFSSYGMHWVRQAPGKGLEWVAVIWYDGSNKYYADSVKGRFTISRDNSKNTLYLQMNSLRAEDTAVYYCARVRDSSDYYGDAFDIWGQGTMVTVSS VL: not shown",stoichiometry N,[2],1.9
same,stoichiometry N,[3],0.92
"2163_KN (antibody, V domains shown) VH: QVQLVESGGGVVQPGRSLRLSCAASGFTFSSYGMHWVRQAPGKGLEWVAVIWYDGSKKYYADSVKGRFTISRDNSKNTLYLQMNSLRAEDTAVYYCARVQTTTGGGSCCPFDYWGQGTLVTVSS VL: DIQMTQSPSSLSASVGDRVTITCRASQSISSWLAWYQQKPGKAPKLLIYKASSLESGVPSRFSGSGSGTEFTLTISSLQPDDFATYYCQQYNNYWTFGQGTKVEIK",binding result,minimal NANP3 peptide [1],binds
"1210 antigen-binding fragment (Fab) (Fab, V domains shown) VH: QVQLVESGGGVVQPGRSLRLSCAASGFTFSNYGMHWVRQAPGKGLEWVAVIWYDGSKKYYADSVKGRFTISRDNSKNTLYLQMNSLRAEDTAVYYCARVRDSSDYYGDAFDIWGQGTMVTVSS VL: DIQMTQSPSTLSASVGDRVTITCRASQSISSWLAWYQQKPGKAPKLLIYKASNLESGVPLRFSGSGSGTEFTLTISSLQPDDFATYYCQQYNNYWTFGQGTKVEIK",stoichiometry N,[4],~12 Fabs per PfCSP
"1210_K. N93_S^rev (antibody, V domains shown) VH: QVQLVESGGGVVQPGRSLRLSCAASGFTFSNYGMHWVRQAPGKGLEWVAVIWYDGSKKYYADSVKGRFTISRDNSKNTLYLQMNSLRAEDTAVYYCARVRDSSDYYGDAFDIWGQGTMVTVSS VL: DIQMTQSPSTLSASVGDRVTITCRASQSISSWLAWYQQKPGKAPKLLIYKASNLESGVPLRFSGSGSGTEFTLTISSLQPDDFATYYCQQYNSYWTFGQGTKVEIK",binding result,minimal NANP3 peptide [5],binds
"1210_YY IgG (1210 H.D100Ymut_K.N92Ymut) (antibody, V domains shown, IgG1; source: HEK293F, purified (Protein G Sepharose)) VH: QVQLVESGGGVVQPGRSLRLSCAASGFTFSNYGMHWVRQAPGKGLEWVAVIWYDGSKKYYADSVKGRFTISRDNSKNTLYLQMNSLRAEDTAVYYCARVRDSSYYYGDAFDIWGQGTMVTVSS VL: DIQMTQSPSTLSASVGDRVTITCRASQSISSWLAWYQQKPGKAPKLLIYKASNLESGVPLRFSGSGSGTEFTLTISSLQPDDFATYYCQQYYNYWTFGQGTKVEIK",Kd,[6],0.66 nM
"1210 H.D100Ymut_K.N92Ymut Fab (recombinant Fab for ITC) (Fab, V domains shown, source: HEK293F, transiently expressed, purified (KappaSelect, SEC)) VH: QVQLVESGGGVVQPGRSLRLSCAASGFTFSNYGMHWVRQAPGKGLEWVAVIWYDGSKKYYADSVKGRFTISRDNSKNTLYLQMNSLRAEDTAVYYCARVRDSSYYYGDAFDIWGQGTMVTVSS VL: DIQMTQSPSTLSASVGDRVTITCRASQSISSWLAWYQQKPGKAPKLLIYKASNLESGVPLRFSGSGSGTEFTLTISSLQPDDFATYYCQQYYNYWTFGQGTKVEIK",stoichiometry N,[2],2.1
same,stoichiometry N,[3],0.88
"1210_H.K56_N^rev (antibody, V domains shown) VH: QVQLVESGGGVVQPGRSLRLSCAASGFTFSNYGMHWVRQAPGKGLEWVAVIWYDGSNKYYADSVKGRFTISRDNSKNTLYLQMNSLRAEDTAVYYCARVRDSSDYYGDAFDIWGQGTMVTVSS VL: DIQMTQSPSTLSASVGDRVTITCRASQSISSWLAWYQQKPGKAPKLLIYKASNLESGVPLRFSGSGSGTEFTLTISSLQPDDFATYYCQQYNNYWTFGQGTKVEIK",binding result,minimal NANP3 peptide [5],binds
"1210_H.K56_Nrev_K.N93_Srev Fab (recombinant Fab for ITC) (Fab, V domains shown, source: HEK293F, transiently expressed, purified (KappaSelect, SEC)) VH: QVQLVESGGGVVQPGRSLRLSCAASGFTFSNYGMHWVRQAPGKGLEWVAVIWYDGSNKYYADSVKGRFTISRDNSKNTLYLQMNSLRAEDTAVYYCARVRDSSDYYGDAFDIWGQGTMVTVSS VL: DIQMTQSPSTLSASVGDRVTITCRASQSISSWLAWYQQKPGKAPKLLIYKASNLESGVPLRFSGSGSGTEFTLTISSLQPDDFATYYCQQYNSYWTFGQGTKVEIK",stoichiometry N,[2],1.7
same,stoichiometry N,[3],0.94
"1210 Fab (recombinant Fab for ITC) (Fab, V domains shown, source: HEK293F, transiently expressed, purified (KappaSelect, SEC)) VH: QVQLVESGGGVVQPGRSLRLSCAASGFTFSNYGMHWVRQAPGKGLEWVAVIWYDGSKKYYADSVKGRFTISRDNSKNTLYLQMNSLRAEDTAVYYCARVRDSSDYYGDAFDIWGQGTMVTVSS VL: DIQMTQSPSTLSASVGDRVTITCRASQSISSWLAWYQQKPGKAPKLLIYKASNLESGVPLRFSGSGSGTEFTLTISSLQPDDFATYYCQQYNNYWTFGQGTKVEIK",stoichiometry N,[2],1.8
same,stoichiometry N,[3],0.73
"1210 IgG (antibody, V domains shown, IgG1; source: HEK293F, purified (Protein G Sepharose)) VH: QVQLVESGGGVVQPGRSLRLSCAASGFTFSNYGMHWVRQAPGKGLEWVAVIWYDGSKKYYADSVKGRFTISRDNSKNTLYLQMNSLRAEDTAVYYCARVRDSSDYYGDAFDIWGQGTMVTVSS VL: DIQMTQSPSTLSASVGDRVTITCRASQSISSWLAWYQQKPGKAPKLLIYKASNLESGVPLRFSGSGSGTEFTLTISSLQPDDFATYYCQQYNNYWTFGQGTKVEIK",Kd,[6],< 0.001 nM
"2163 (antibody, V domains shown) VH: QVQLVESGGGVVQPGRSLRLSCAASGFTFSSYGMHWVRQAPGKGLEWVAVIWYDGSNKYYADSVKGRFTISRDNSKNTLYLQMNSLRAEDTAVYYCARVQTTTGGGSCCPFDYWGQGTLVTVSS VL: not shown",binding result,minimal NANP3 peptide [1],binds
"2163_H.S31_Nmut (antibody, V domains shown) VH: QVQLVESGGGVVQPGRSLRLSCAASGFTFSNYGMHWVRQAPGKGLEWVAVIWYDGSNKYYADSVKGRFTISRDNSKNTLYLQMNSLRAEDTAVYYCARVQTTTGGGSCCPFDYWGQGTLVTVSS VL: not shown",binding result,minimal NANP3 peptide [1],binds
"2163_H.N56_Kmut (antibody, V domains shown) VH: QVQLVESGGGVVQPGRSLRLSCAASGFTFSSYGMHWVRQAPGKGLEWVAVIWYDGSKKYYADSVKGRFTISRDNSKNTLYLQMNSLRAEDTAVYYCARVQTTTGGGSCCPFDYWGQGTLVTVSS VL: not shown",binding result,minimal NANP3 peptide [1],binds
"2163_H.V50_Imut (antibody, V domains shown) VH: QVQLVESGGGVVQPGRSLRLSCAASGFTFSSYGMHWVRQAPGKGLEWVAIIWYDGSNKYYADSVKGRFTISRDNSKNTLYLQMNSLRAEDTAVYYCARVQTTTGGGSCCPFDYWGQGTLVTVSS VL: not shown",binding result,minimal NANP3 peptide [1],binds
